Measurements from the supplement of paper PMC7125110.
± gives the standard error. This sample holds only a part of the variants without activity.

B1: glmS ribozyme (parent)
chain: AUAAAAGCGCCAGAACUACAGAAAUGUAGUUGACGAGGAGGAGGUUUAUCGAAUUUUCGGCGGAUGCCUCCAAA

Columns and labels:
Conditions in all cases: with glucosamine-6-phosphate
[1] = variants of: B1; assay: self-cleavage kobs at 40 uM GlcN6P; higher = faster cleavage; RNA array
In short: (§1)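 The measurements used barcoded ribozyme variants on sequenced MiSeq chips, transcribed in situ by E. coli RNA polymerase and tracked at 37 °C with a hybridised Cy3 probe. Glucosamine-6-phosphate, 40 μM to 10 mM in HEPES/KCl/Mg(OAc)2 buffer, was flowed in while tiles were imaged over ~14 h. Baseline-normalised signals, also normalised to non-cleaving reference variants, gave per-tile medians that were fit to one- or two-exponential decays for kobs. kcat and KM resulted from weighted Michaelis–Menten fits across concentrations.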

[2] = variants of: B1; assay: self-cleavage kobs at 160 uM GlcN6P; higher = faster cleavage; RNA array
In short: as §1

[3] = variants of: B1; assay: self-cleavage kobs at 640 uM GlcN6P; higher = faster cleavage; RNA array
In short: as §1

[4] = variants of: B1; assay: self-cleavage kobs at 2500 uM GlcN6P; higher = faster cleavage; RNA array
In short: as §1

[5] = variants of: B1; assay: self-cleavage kobs at 10000 uM GlcN6P; higher = faster cleavage; RNA array
In short: as §1

Variant | self-cleavage kobs at 40 uM GlcN6P [1] [s⁻¹] | self-cleavage kobs at 160 uM GlcN6P [2] [s⁻¹] | self-cleavage kobs at 640 uM GlcN6P [3] [s⁻¹] | self-cleavage kobs at 2500 uM GlcN6P [4] [s⁻¹] | self-cleavage kobs at 10000 uM GlcN6P [5] [s⁻¹]
C8A C67G | < 1e-05 | < 1e-05 | < 1e-05 | < 1e-05 | < 1e-05
A6G A14G G32C G44A A53C U65G C68U | < 1e-05 | – | – | < 1e-05 | –
C8U C34G | < 1e-05 | < 1e-05 | – | – | < 1e-05
U31G U54G | 0.000298 ± 5.4e-05 | 0.000493 ± 8.5e-05 | 0.00263 ± 0.00063 | 0.00445 ± 0.00094 | 0.0119 ± 0.0031
C16U G32C G38C | < 1e-05 | – | – | – | –
C10G U47G | < 1e-05 | – | – | – | < 1e-05
U30A U54G | 0.000119 ± 2.1e-05 | – | – | – | 0.00479 ± 0.00078
A14G G37A G63U | < 1e-05 | – | – | – | < 1e-05
A15G G35U | < 1e-05 | < 1e-05 | – | < 1e-05 | < 1e-05
A48G U54A C61U | < 1e-05 | – | – | – | –
G38A C67U C71A | < 1e-05 | – | – | – | < 1e-05
G13U G35C | < 1e-05 | < 1e-05 | < 1e-05 | < 1e-05 | < 1e-05
U45A A53G U55G | 0.00113 ± 0.00021 | – | – | – | 0.0551 ± 0.018
C16A G51U A64C | < 1e-05 | – | – | < 1e-05 | < 1e-05
A42G U49C | < 1e-05 | < 1e-05 | < 1e-05 | < 1e-05 | < 1e-05
C34A G63U | < 1e-05 | < 1e-05 | < 1e-05 | – | < 1e-05
U30C G32C G44U C50U | < 1e-05 | – | – | – | < 1e-05
C11U A64C | < 1e-05 | – | – | – | < 1e-05
A6U C11U G13A | < 1e-05 | – | – | – | < 1e-05
G9A C11G A53G | < 1e-05 | – | – | – | –
G9U A48G | < 1e-05 | < 1e-05 | < 1e-05 | – | < 1e-05
A15C U30G A39U | 0.00162 ± 0.00029 | – | – | – | 0.0346 ± 0.013
C8G G13U U30C G43U | < 1e-05 | – | – | – | –
A14G C16U U45G C67U | 0.00026 ± 6.6e-05 | 0.000132 ± 3e-05 | 0.00248 ± 0.0012 | 0.00988 ± 0.0035 | –
U47A U54C | 0.000843 ± 0.0002 | 0.00125 ± 0.00029 | 0.00582 ± 0.0015 | 0.014 ± 0.0038 | –
U47A U54G | 0.0005 ± 0.00016 | – | 0.0103 ± 0.0034 | 0.00345 ± 0.0016 | –

Variant | self-cleavage kobs at 40 uM GlcN6P [1] [s⁻¹] | self-cleavage kobs at 160 uM GlcN6P [2] [s⁻¹] | self-cleavage kobs at 640 uM GlcN6P [3] [s⁻¹] | self-cleavage kobs at 2500 uM GlcN6P [4] [s⁻¹] | self-cleavage kobs at 10000 uM GlcN6P [5] [s⁻¹]
A6G C58A C67G | 0.000658 ± 0.00021 | – | – | – | 0.000123 ± 3.5e-05
A12C G38C A42U | < 1e-05 | – | – | – | < 1e-05
C16A G43U C68G C71U | < 1e-05 | – | – | – | –
U30A G59A G63A | < 1e-05 | – | – | – | –
A6G G38U A39G G51A C68G C70U | 7.83e-05 ± 3.2e-05 | – | – | – | –
A33C G43C C58A U69A | < 1e-05 | – | < 1e-05 | – | < 1e-05
G51A U69C | < 1e-05 | – | – | – | < 1e-05
C16G G35A | < 1e-05 | < 1e-05 | < 1e-05 | – | < 1e-05
C8A C68A | < 1e-05 | < 1e-05 | < 1e-05 | < 1e-05 | –
A39C A52U C71U | < 1e-05 | – | – | – | –
U31G U57G | < 1e-05 | – | – | – | –
G13A C16A A52U | < 1e-05 | – | – | < 1e-05 | < 1e-05
C8U A12C G40A U45G G60A G66U | < 1e-05 | – | – | – | –
A33U C50A C68G | 4.36e-05 ± 2e-05 | – | – | – | –
A53C U56C | < 1e-05 | – | – | 0.000121 ± 2e-05 | –
A33C G63U C67U | < 1e-05 | – | – | – | –
G7U C16G G59A | < 1e-05 | – | < 1e-05 | – | < 1e-05
A15C G35U A36G U65C C68A | < 1e-05 | – | – | – | < 1e-05
C50U U54A | < 1e-05 | < 1e-05 | – | – | 5.02e-05 ± 9.2e-06
C11A C50A C68G | 5.45e-05 ± 1.8e-05 | 0.000352 ± 0.0001 | 0.000154 ± 5.6e-05 | 6.2e-05 ± 2.5e-05 | 3.73e-05 ± 1.7e-05
A42C A64G | < 1e-05 | < 1e-05 | < 1e-05 | – | –
G44U U45C | < 1e-05 | – | – | – | –
G40U G63A | < 1e-05 | < 1e-05 | < 1e-05 | < 1e-05 | < 1e-05
A6G A36C G51A | < 1e-05 | – | – | < 1e-05 | < 1e-05
C34G A36G G37A A42U G51C C67U | < 1e-05 | – | – | < 1e-05 | –
A33C G51A G60C | < 1e-05 | – | < 1e-05 | – | –

Variant | self-cleavage kobs at 40 uM GlcN6P [1] [s⁻¹] | self-cleavage kobs at 160 uM GlcN6P [2] [s⁻¹] | self-cleavage kobs at 640 uM GlcN6P [3] [s⁻¹] | self-cleavage kobs at 2500 uM GlcN6P [4] [s⁻¹] | self-cleavage kobs at 10000 uM GlcN6P [5] [s⁻¹]
A6C A52U U54A U55C | < 1e-05 | – | < 1e-05 | – | < 1e-05
U30A C58G U65C | < 1e-05 | – | – | – | –
U45G U46G C61A | < 1e-05 | – | – | – | < 1e-05
U31C U49A A64U | < 1e-05 | – | – | – | < 1e-05
G9U U31G G32C G62A | < 1e-05 | – | – | – | –
A6G A42U A64G | < 1e-05 | – | < 1e-05 | < 1e-05 | < 1e-05
G35U U69C | < 1e-05 | < 1e-05 | – | < 1e-05 | < 1e-05
C11A A48C U55C C61A | < 1e-05 | – | – | – | –
G29U C34A C61U | < 1e-05 | – | < 1e-05 | – | –
C8G C11A C50G | 0.000193 ± 4.9e-05 | – | – | – | –
C8U A12C A15G C67U | < 1e-05 | – | – | – | < 1e-05
A14G A53G C58U U65C C71U | < 1e-05 | – | – | – | –
G7U U45C | < 1e-05 | < 1e-05 | < 1e-05 | < 1e-05 | < 1e-05
G9A U46G G62A | < 1e-05 | – | – | < 1e-05 | –
A14U U55G C61G | < 1e-05 | – | – | – | < 1e-05
G35C G59A | < 1e-05 | < 1e-05 | < 1e-05 | < 1e-05 | –
C10U G60U C67U | < 1e-05 | < 1e-05 | < 1e-05 | – | < 1e-05
U46G C58U | < 1e-05 | – | – | – | –
U31G G63A | < 1e-05 | < 1e-05 | < 1e-05 | < 1e-05 | < 1e-05
C19A A33G A36G G40A A42G G62U G63A C71A | < 1e-05 | – | – | < 1e-05 | –
A36G A52U | < 1e-05 | < 1e-05 | < 1e-05 | < 1e-05 | < 1e-05
G7U G62A | < 1e-05 | < 1e-05 | < 1e-05 | < 1e-05 | –
C16A C34G | < 1e-05 | – | < 1e-05 | – | –
G32U C34U A42C | < 1e-05 | – | – | < 1e-05 | –
U57G U65A | < 1e-05 | – | < 1e-05 | – | –
A14G G29U C34U | < 1e-05 | – | – | – | –

Variant | self-cleavage kobs at 40 uM GlcN6P [1] [s⁻¹] | self-cleavage kobs at 160 uM GlcN6P [2] [s⁻¹] | self-cleavage kobs at 640 uM GlcN6P [3] [s⁻¹] | self-cleavage kobs at 2500 uM GlcN6P [4] [s⁻¹] | self-cleavage kobs at 10000 uM GlcN6P [5] [s⁻¹]
C34U G37C A53G | < 1e-05 | – | – | – | –
C8G G60U A64U | < 1e-05 | – | – | – | < 1e-05
A15U C16A G40A C68U U69A | < 1e-05 | – | – | – | < 1e-05
G38U A52C C61A | < 1e-05 | – | – | – | –
A33G G40C C70U | < 1e-05 | – | – | – | < 1e-05
G7A A36C | < 1e-05 | < 1e-05 | – | – | < 1e-05
A36U C70G | 3.74e-05 ± 8.5e-06 | 2.91e-05 ± 1.4e-05 | 0.000403 ± 6.8e-05 | – | –
A12U G29U G35C U49A C70A C71G | < 1e-05 | < 1e-05 | – | – | –
G44C U55G C70U | < 1e-05 | – | < 1e-05 | – | –
A36G A48C | < 1e-05 | < 1e-05 | < 1e-05 | – | < 1e-05
G32A A48U C70U | < 1e-05 | – | – | – | –
A12U G41U A42G | 0.000102 ± 1.6e-05 | – | – | – | 0.00149 ± 0.0003
A39C A48C U55C C58U | < 1e-05 | – | < 1e-05 | < 1e-05 | –
G7U G35U G38U G59C | < 1e-05 | – | – | – | < 1e-05
G7U G29A A48G | < 1e-05 | – | – | – | < 1e-05
U45C C67A C70G | < 1e-05 | – | – | < 1e-05 | –
A39G C68G | 2.98e-05 ± 1.4e-05 | 6.43e-05 ± 1.3e-05 | 0.000165 ± 5e-05 | 0.000286 ± 4.7e-05 | 0.000116 ± 1.2e-05
C16A A52C | < 1e-05 | < 1e-05 | < 1e-05 | – | < 1e-05
A12U G41U U54A | 4.72e-05 ± 1.9e-05 | – | – | – | 0.000602 ± 0.00016
G43C A52U | < 1e-05 | < 1e-05 | < 1e-05 | < 1e-05 | < 1e-05
G44U U57A U69A | < 1e-05 | < 1e-05 | < 1e-05 | – | < 1e-05
G9A G13A A14C C61A | < 1e-05 | – | – | – | < 1e-05
A36C G62C | < 1e-05 | < 1e-05 | – | – | < 1e-05
